# Experiment: soluble on expression in E. coli; label from the status in PepcDB or PDB records
row,Sequence,soluble on expression in E. coli
1,MELSEPLENYLKEIYEIELLKGYARVSDLILAFNVSPGTVSKALEKLEKIGLIERDNKKIKLTAEGKKIAEKLIRAHRLSERLLTDIIGLDWIRAHQLAHRLEHIWPEDVVDKIDELLGKPLTCPHGHPIPGREVKVNGIKLSEAECNKKYKVIMIIREEEWILSMADELNIKPGVEIKLIKKNENDFVIEIDNKKESIPKALAEEVLVSE,soluble
2,MTISNSNLLKPFITGTELPPFKEDVFSKTEEQFKKSTYGKSLFISGNENLVNISAEKIDEIKNSKNFFSNIVNIIILLIKHPDKILPILHGCPVESIEVIKNAKRTGQWSYEMTDKNGQSIEVSYIFTDTIDDKSDGKLCLKICNSCNQNDSSTHEYKIDHQQLKNHIRQLEEWALLEKFYDNNAYYSKRTKQLEKKIADAGFITRKVKAENFNVKEFKDDIASMLCEQPPMRTHQISSSGYVSADKLHKLYKTNLEDAQRDLKTTPVDIDGVSLKSITREKIAEEIAKKTAEIIAKQNAKSIEEKNIEKNKKQTNSEDNFVLKFSPEEINEMLLDYSDEEQKKLRPFFTSDHIYCLFDAFSQGLHNVARNGSPRYAGLLRQIASKSAILQDFDQQLFWRTFTGGVLHRHISVKSEPEKTDVWRFSSQFDFPHINENGELSRTVLMFEGVAESNFKDIANHSSECFSYRCYAAPLDANAKK,soluble
3,MELIRFSISIPSKLLEKFDQIIEEIGYENRSEAIRDLIRDFIIRHEWEVGNEEVAGTITIVYNHDEGDVVKALLDLQHEYLDEIISSLHVHMDEHNCLEVIVVKGEAKKIKMIADKLLSLKGVKHGKLVMTSTGKELV,soluble
4,MHTRAEKLEAFGRLLDVLDTLREQCPWDRKQTNESLRTNTIEEVYELSEALLGECPDDIRKELGDVLLHVAFYAKIGEEKGQFDIASVCHALCDKLIYRHPHIYGNVQVENAAEVVRNWEQLKLREKDGNKSVLSGVPKSLPALVKSYRMQEKAAGVGFDWEQREQVWPKVEEELNEVRGAIVSEDPDAMEAEFGDLLFAVVNAARLYGINPDNALERTNRKFDSRFSYVEQRAKQQGKALRDMTLSEMDALWNEAKQKGL,not soluble
5,EGEPIVEYQVKDLLYDQGVRVELHGKDLVSRVGEMTLDKVYYAFSKFFGLDIVTDYLEVPQDIPPRPPALCPGCPHRSSFIDLKKAITMASFKPNETFISG,not soluble
6,MAKRKKKEVFDWEDEDQEEIIWVSKSEIKRDAEDLKQLGEKIVNLTKANLAKIPLDESLLDAIELAQRLQKEARRRQLQYIGKLFRGIDVEPIREALDKIENKHNQQQAMLHKIEKVRDELVEKGDVALTDLLNDYPNGDRQQLRNLIRSAQKELEQNKPSKAYREIYQMLKVLMLED,not soluble
7,MGSDKIHHHHHHMNSLQFPRHGDKENSAFFEEYLVKLLEERDAMGLTAMVHEIDALMITVDPGHSVKYVAELCFMTSYHYLVTLESESHWTHVLRIDLDSPDLLVREVKDPNLRGIFRSLNEIYPVGARKPNSRYMGEIIRVNNLHDVVKLQQEREFRFFTQDEVRKLELPGNLAVSKPSPYTHNIVAYLERKPDEMRVYSLGVSRVDAELQMAYEAAKRLQEKLNFADLLLPIDHLATRVYSQNREVAILEYLSWSSYYFWGAYNIFDQNSSTNVTKSAHGLPESKSPAKVFTANNTPYFVNHLEKLPSPTETFVRNYGPRLHHIAVAVRDGERDGLEHIEFAVNAIASQGKGFLLDVIGSREEGLKQIFSNASEHSSLIVEYVQRFGDFQGFFTKENVAVLTEAAGREEGVKSGASLG,not soluble
8,MAPSQAPSRDRAGQEDEDRWEARGDRKARKPLVEKKRRARINESLQELRLLLAGTEVQAKLENAEVLELTVRRVQGALRGRAREREQLQAEASERFAAGYIQCMHEVHTFVSTCQAIDATVSAELLNHLLESMPLREGSSFQDLLGDSLAGLPGGSGRSSWPPGGSPESPLSSPPGPGDDLCSDLEEIPEAELNRVPAEGPDLVSTSLGSLTAARRAQSVWRPW,not soluble
9,GPGSMLGSPLFPVAMDSFFDEDECERLGVWEDPRCLRAAEYTQCVATIRALIEQYGVAAAPLHTVKDAAQFLRFEASSAVSHPPMRESAVSYTVKSYGEASKKCVSEANNIVLSSLCMNDACVAGNAADGTDVALEKVFIVCEGFLIFGYPELCNMFDFFVFVHSDNETACLRRFFRGSRRKKRKPQGGNCDRILRMRTSRVNAELWSSEGAAANKTLSPSFSSVLPHLKYMPPQPSSPNDYQGFWLQSEYKELPPPMPFGMSGLKAPPYDWLEVKDLQYVKQMLHQWANASCVDDVEGVLGRYFEFRYWFYYEVLFYHYQLRGISEENVTTACQAKGTTKTSPSQSVLHIKNDASVSCVMLDSQLLALAQQVSGDLINGEGEVRLLLGWN,not soluble
10,MMPAHETYDVIVVGAGAGGMTAAAVAAAEGLSVLVIEKTAFVGGTTAWSDGMVWIPANPKMKAAGLSDSVADAVQYLSSTVPEPANAGLRAAFLARGPEAVTYLEAKTEVRFLPVKTCPDYYPERLGATSGGRALEPVAFDGTRLGRAFARLRPPLPEFTLFGGMMVNRLDIPHLRRIGKSLRSTLRAARLVSEYMMQRLRSPRGTTLHLGNALAARLYASLLARQGEILFSADVEDLSMQGDRVSGVVIRHGSRDRAIAARRGVVLATGGFSHDAALRKRFFPPAAGFVSATSPSGTGDGLRLAATAGAALNTEATSPAYWVPASLFRRADGSRGVFPHTVTDRAKPGVIAVNAAGRRFVNEALSYHEFVLAMLRDGHGEPDRPFYLICDRQFLWSYGLGRIKPFTRNFRRYVASGELVEAPDITQLAAKIGIKPSVLTATIAAYNIDAKEGRDPEFGRGTTIYQRHLGDISHKPNPCVAPILRAPYFALRIYPADLGTAIGMKVDAQARVLRGDGTPIAGLYACGNDMGSIMNGNCPGPGITLGPALTFGYIAGRHLAEGGVTRELAKEQMLEHHHHHH,not soluble
11,MSLADERIEVLKDILLELHHGASAESVQERFNQHFKGVSAIEISMMEHELMNADTGITFEDVMGLCNVHANLFKGAIADVDVPDAEQEGHPVKVFKDENLALRAAIMRIRRIIENYTKPENEDFRQEILKGLKHQFDLLGQFYHHYTRKEKLFFPIMERYGHDSPPKVMWGVDDDIRDLFKDAKATLAKLPDGSIEELSQKFEAFAKEFEEMIFKEEAILLMILLESFTQDDWLQIASESDAYGYAILKPTEKWIPHRESFDNEADADTSDNQLADALNQVQDANSPEGTNTKVINTPEGQFTITFKPKEKEAAADRTTQQPFGNGYLSVEQANLILNHLPLEITFVNKDDIFQYYNDSVPAAEMVFKRTPSQVGRNVELCHPPKVLDKVKKVFELLRNGQRDKVNMWFQSERLGKFVYVTYAAVRDQAGDFQGVLEYVQDIKPFFELDSEFNRDEGHHHHHH,soluble
12,MMYQDVVRSRRSVRDFMPDVEIPKEELMAIIEEAMFAPNSTNLNSWRFLIVTEKEQKEALYEVSMQQPAVKGAAAVIILLGDLTAYTVANADEISAKAVAQGTMTEEIRQGINENVSWYYDVSEEQKREWLMLDQGLVAMQLMLSAKDRGYDTVAMSGFETEAVRKLFNIEDHLVNGLIIPIGKAQTPGFETVRRDVSEVVTWLD,not soluble
13,MGSDKIHHHHHHMVTETYINKLLAPIRRRITGMLTRAVVSGIVEDLQRQNLQVKMHADESADNIERFQNYGMSSYPPEGAEAIVAALGGALSGLVAIAVEDKKFRPKGESGDVFLYHLEGHKIRLTKDGKIILTAQDVIFEIENSFTISTTDVIFNASGSFTIISPETLIDGPLHVTGDISTDLGITAVNGITSNSVITGSDLSANNISYLGHIHKDAENRPTTAPE,not soluble
14,SADEEEEVKPILQKLQELVDQLYSFRDCYFETHSVEDAGRKQQDVRKEMEKTLQQMEEVVGSVQGKAQVLMLTGKALNVTPDYSPKAEELLSKAVKLEPELVEAWNQLGEVYWKKGDVAAAHTCFSGALTHCRNKVSLQNLSMVLRQLRTDTEDEHSHHVMDSVRQAKLAVQMDVHDGRSWYILGNSYLSLYFSTGQNPKISQQALSAYAQAEKVDRKASSNPDLHLNRATLHKYEESYGEALEGFSRAAALDPAWPEPRQREQQLLEFLDRLTSLLESKGKVKTKKLQSMLGSLRPAHLGPCSDGHYQSASGQKVTLELKPLSTLQPGVNSGAVILGKVVFSLTTEEKVPFTFGLVDSDGPCYAVMVYNIVQSWGVLIGDSVAIPEPNLRLHRIQHKGKDYSFSSVRVETPLLLVVNGKPQGSSSQAVATVASRPQCE,soluble
15,MGSDKIHHHHHHMRVDHSTQPVAVLQEPSIVLVIQGVKRAYIGKDIFKFQQGQCLFISIAIPFDCDTLVEREPMLAIAIKFEPQMMAELATKMDKEHRPLIEDFDNKEIKLSCGLNIIEMNSVISDVALRLLNLLRSKQDTAILGEQVKRELIYRVLQAGGSDFIQNLSAIMSRSGVIYTICEIIQRDYYRNLTVQELAKQAGMSVSLFHQAFKKVTNYSPLQYIKITRLHKARDLILNNQMGVAEAAYEVGYVSASQFSREFKRLFGVPPKLSTN,not soluble
16,MKVGINGFGRIGRQVFRILHSRGVEVALINDLTDNKTLAHLLKYDSIYHRFPGEVAYDDQYLYVDGKAIRATAVKDPKEIPWAEAGVGVVIESTGVFTDADKAKAHLEGGAKKVIITAPAKGEDITIVMGVNHEAYDPSRHHIISNASCTTNSLAPVMKVLEEAFGVEKALMTTVHSYTNDQRLLDLPHKDLRRARAAAINIIPTTTGAAKATALVLPSLKGRFDGMALRVPTATGSISDITALLKREVTAEEVNAALKAAAEGPLKGILAYTEDEIVLQDIVMDPHSSIVDAKLTKALGNMVKVFAWYDNEWGYANRVADLVELVLRKGV,soluble
17,ETAADNAAYWSIATTMRSDNSALSAVQDALGLGAAKVDTAYDALESTIEVVKQIKAKLVAAYGVGADRGKIQDEIKQLQEQLKSISESASFSGENWLQASISNSGTPPVAESITKKVVASFTRTGSGNVGVTTVDYTLDSSTVLFDLSGGKLGILDKNAVFVSKTETEVMQTSTTAGKTSQAGYVVEKLSDAQIGALNATTTDTNTDPNLYSNGTDNYLRLAENVWVKATATNPSSGGTTVSPAYRDTGSTDWFYDVSAGTASANRSLGFSVSTLDLGNLDVVAAAMGGFAGGGTTYTGADAIDMMMSFVDKQLEAMTSTASSLGSLQSRISMQENFVSSLMDVIDKGVGRLV,not soluble
18,SAAKALKDLKNLPVSERNIDYKTKLLVGKMNGTAEDKPPQNSVPFDHNHPKGDEIEKPEAERVIVEIEYIESKDLNNVTQVDAVLKSLVTELDSKDWVLVCDALNTIRRLSIFHKEEMLHMLEKVILFIVKSLKNPRSAVSKTACMTSADIFSSYNDHTIDQLDLLLTQLLLKSSQDKRFVCEAAEKALVAMTAHVSPALLLPKLQPFLKNRNPRIRAKASTCFSRCVPRLGIEGIREYGIEKLVQAASSQLSDQLPESREAARAVLLELQTVYKKTTNVEPKEEHPEPVTWQIFCQSNLSPLSAQAVIRVTNVAGVAREGLVAGS,soluble
19,NIDLDVQNMAQNALKFGYDEIVKRDKDANLSTLNGAMVVVNHQSGDVLALVGGVDYEKSNYNRATQSMRQPGSSFKPFVYQVAINLGYSPMSEIADISRIFEGGAGNNEDWKPKNEGGKFLGLITLKEALTRSRNLATINLALDMGLDVLYSKLMEFGFKDIPPNLSIVLGSFGISPLEYSKFYTMFGNYGTIKDPQIIRQVQDKTGKTIMEFNSNERKVSDEAQSFLVLDMMRNVVEKGTGRNARVKDIEIAGKTGTTNKSVDAWFCGLTPEIEAIIWYGNDNNKPMRYTEGGARTAAPVFREFLTQYIEKFPDTTR,not soluble
20,MGSDKIHHHHHHVKIRLALPQDVDLLAMLEKKHLNDELASANMGLQGQAFSHSELSELVQRHWVVVAQVEQQIVGYVIAGRWGFFEHWPIYRTLLNRLGQLDWDGPKLTKTNSCQYGPIWVQQAYRGQGIFEALVSEIRRQVAPHFSYMLTFIAEDNERSFAAHSGKAHMQVVDFFTVSARDYYLMAAKTQA,not soluble

# Source: the DeepSol protein solubility set
